{"source": "paper PMC10987521", "about": "“An all-in-one tetrazine reagent for cysteine-selective labeling and bioorthogonal activable prodrug construction” (Nature Communications, 2024)", "key": {"LX2 cells": {"test_system": "LX2 cells", "assay": "Cell uptake by fluorescence imaging, LX2", "type": "cell-based, Human", "conditions": "αvβ3-negative, 10 μM, 2 h"}, "B16F10 cells [1]": {"test_system": "B16F10 cells", "assay": "Cellular uptake of RGD-Dox over various time intervals using flow cytometry", "type": "cell-based, Mouse"}, "B16F10 cells [2]": {"test_system": "B16F10 cells", "assay": "Cellular uptake of RGD-Dox over various time intervals using flow cytometry", "type": "cell-based, Mouse", "experimental": "concentration at the indicated time .\n10. In vivo release evaluation of the RGD-FL\nSubsequently, the cells were stained […]\nlaser scanning microscope. […]\nμM) for 60 min. […] Blocking studies were performed by\nCells were pre-treated with 18- […]\nspecific times using a confocal laser scanning microscope.\n11. Cell viability assays\nAfter the incubation period, the\nSubsequently, the cells were trypsinized and underwent three rinses with PBS.", "remark": "listed apart in the source"}, "[3]": {"assay": "Accumulation of RGD-Dox at various time points in tumor tissues", "type": "in vivo, mice", "conditions": "for tissue level at time molar at 0.5 h / tissue level at time molar at 1 h / tissue level at time molar at 2 h / tissue level at time molar at 4 h / tissue level at time molar at 6 h: BALB/c nude, mouse, tumor tissue, iv, 3.67 umol⸱/kg", "experimental": "13. In vivo anticancer efficacy\n13.1 The accumulation of RGD-Dox at various time points in tumor tissues When the tumor volume reached approximately 400 mm3, five mice in each group received an i.v. injection of 3.67 μmol⸱kg-1 RGD-Dox. After various time intervals, the mice were sacrificed, and tumor tissues were dissected. About 0.5 to 1 g of tissue was ground into a homogenate, and proteins were precipitated by the adding two volumes of acetonitrile (1 mL). After centrifugation, the supernatant was removed, concentrated to 100 µL, and 20 µL was used for HPLC–MS analysis. The RGD-Dox concentration in the sample was determined from a standard curve of the peak area of the characteristic absorption of RGD-Dox at 520 nm. […]"}, "B16F10 cells [4]": {"test_system": "B16F10 cells", "assay": "Cell uptake by fluorescence imaging, B16F10", "type": "cell-based, Mouse", "conditions": "B16F10 pre-treated with 50-fold excess of unmodified RGD, 10 μM, 2 h", "experimental": "(§1) B16F10 cells were cultured for 48 h. […]\n(§2) 12.1 Calculation of the fluorescence coefficient (F c)\n(§3) The Fc was the radio calculated\n(§4) 12.2 Uptake calculation of the B16F10 cells […]\n(§5) deviation were analyzed using Origin Pro 2015.\n(§6) B16F10 cells, characterized by α vβ3\n(§7) Following the incubation period, the\nSubsequently, the cells were trypsinized and underwent three PBS rinses.\n12 .4 Cell uptake analysis by fluorescence imaging"}, "B16F10 cells [5]": {"test_system": "B16F10 cells", "assay": "Comparison of cell uptake between RGD-Dox and Dox using flow cytometry", "type": "cell-based, Mouse", "experimental": "as §1, §2, §3, §4, §5, §6, §7\nSubsequently, the cells were trypsinized and underwent three PBS rinses. […]"}}, "note": "Entries after “also recorded” stand apart in the source; their conditions may differ."}
{"compound": "COc1cccc2c1C(=O)c1c(O)c3c(c(O)c1C2=O)C[C@@](O)(C(=O)CO)C[C@@H]3O[C@H]1C[C@H](NC(=O)OCc2nnc(CCSC[C@@H]3NC(=O)[C@@H](Cc4ccc(O)cc4)NC(=O)[C@H](CC(=O)O)NC(=O)CNC(=O)[C@H](CCCNC(=N)N)NC3=O)nn2)[C@H](O)[C@H](C)O1", "note": "[RGD-Dox]", "values": [{"measurement": "cellular fluorescence (uptake) in LX2 cells", "setting": "LX2 cells", "result": "negligible fluorescence"}, {"measurement": "cellular uptake of RGD-Dox (flow cytometry)", "setting": "B16F10 cells [1]; 0.5 h, Data 2", "result": 4811}, {"measurement": "cellular uptake of RGD-Dox (flow cytometry)", "setting": "B16F10 cells [1]; 1 h, Data 1", "result": 7075}, {"measurement": "cellular uptake of RGD-Dox (flow cytometry)", "setting": "B16F10 cells [1]; 1 h, Data 2", "result": 6214}, {"measurement": "cellular uptake of RGD-Dox (flow cytometry)", "setting": "B16F10 cells [1]; 2 h, Data 2", "result": 11247}, {"measurement": "cellular uptake of RGD-Dox (flow cytometry)", "setting": "B16F10 cells [1]; 2 h, Data 3", "result": 9887}, {"measurement": "cellular uptake of RGD-Dox (flow cytometry)", "setting": "B16F10 cells [1]; 3 h, Data 1", "result": 12006}, {"measurement": "cellular uptake of RGD-Dox (flow cytometry)", "setting": "B16F10 cells [1]; 3 h, Data 2", "result": 12578}, {"measurement": "cellular uptake of RGD-Dox (flow cytometry)", "setting": "B16F10 cells [1]; 4 h, Data 2", "result": 13144}, {"measurement": "cellular uptake of RGD-Dox (flow cytometry)", "setting": "B16F10 cells [2]; 0.5 h, Data 1", "result": 4477}, {"measurement": "cellular uptake of RGD-Dox (flow cytometry)", "setting": "B16F10 cells [2]; 0.5 h, Data 3", "result": 4327}, {"measurement": "cellular uptake of RGD-Dox (flow cytometry)", "setting": "B16F10 cells [2]; 1 h, Data 3", "result": 6221}, {"measurement": "cellular uptake of RGD-Dox (flow cytometry)", "setting": "B16F10 cells [2]; 2 h, Data 1", "result": 10116}, {"measurement": "cellular uptake of RGD-Dox (flow cytometry)", "setting": "B16F10 cells [2]; 3 h, Data 3", "result": 12247}, {"measurement": "cellular uptake of RGD-Dox (flow cytometry)", "setting": "B16F10 cells [2]; 4 h, Data 3", "result": 12044}, {"measurement": "cellular uptake over time (flow cytometry)", "setting": "B16F10 cells [2]; B16F10, 10 μM, 37 °C, 0.5–6 h, 488/610 nm", "result": "rapid increase observed within the first 2 hours, followed by a plateau and saturation thereafter; also recorded: high cellular uptake after 2 h"}, {"measurement": "accumulation at the tumor tissue over time", "setting": "[3]; 3.67 μmol·kg^−1 i.v., 0-6 hours, HPLC–MS 520 nm, n = 5", "result": "continuous increase in the accumulation of RGD-Dox at the tumor site within the first 0-2 hours, followed by a gradual decrease"}, {"measurement": "accumulation of RGD-Dox in tumor tissues", "setting": "[3]; 6 h, Data 3", "result": 0.09596, "unit": "nmol/g"}, {"measurement": "tissue level at time molar at 0.5 h", "setting": "[3]; Data 1", "result": 0.253, "unit": "nmol/g"}, {"measurement": "tissue level at time molar at 0.5 h", "setting": "[3]; Data 2", "result": 0.122, "unit": "nmol/g"}, {"measurement": "tissue level at time molar at 0.5 h", "setting": "[3]; Data 3", "result": 0.145, "unit": "nmol/g"}, {"measurement": "tissue level at time molar at 0.5 h", "setting": "[3]; Data 4", "result": 0.161, "unit": "nmol/g"}, {"measurement": "tissue level at time molar at 0.5 h", "setting": "[3]; Data 5", "result": 0.185, "unit": "nmol/g"}, {"measurement": "tissue level at time molar at 1 h", "setting": "[3]; Data 1", "result": 0.311, "unit": "nmol/g"}, {"measurement": "tissue level at time molar at 1 h", "setting": "[3]; Data 2", "result": 0.321, "unit": "nmol/g"}, {"measurement": "tissue level at time molar at 1 h", "setting": "[3]; Data 3", "result": 0.226, "unit": "nmol/g"}, {"measurement": "tissue level at time molar at 1 h", "setting": "[3]; Data 4", "result": 0.407, "unit": "nmol/g"}, {"measurement": "tissue level at time molar at 1 h", "setting": "[3]; Data 5", "result": 0.29, "unit": "nmol/g"}, {"measurement": "tissue level at time molar at 2 h", "setting": "[3]; Data 1", "result": 0.249, "unit": "nmol/g"}, {"measurement": "tissue level at time molar at 2 h", "setting": "[3]; Data 2", "result": 0.239, "unit": "nmol/g"}, {"measurement": "tissue level at time molar at 2 h", "setting": "[3]; Data 3", "result": 0.408, "unit": "nmol/g"}, {"measurement": "tissue level at time molar at 2 h", "setting": "[3]; Data 4", "result": 0.321, "unit": "nmol/g"}, {"measurement": "tissue level at time molar at 2 h", "setting": "[3]; Data 5", "result": 0.3, "unit": "nmol/g"}, {"measurement": "tissue level at time molar at 4 h", "setting": "[3]; Data 1", "result": 0.296, "unit": "nmol/g"}, {"measurement": "tissue level at time molar at 4 h", "setting": "[3]; Data 2", "result": 0.245, "unit": "nmol/g"}, {"measurement": "tissue level at time molar at 4 h", "setting": "[3]; Data 3", "result": 0.274, "unit": "nmol/g"}, {"measurement": "tissue level at time molar at 4 h", "setting": "[3]; Data 4", "result": 0.16, "unit": "nmol/g"}, {"measurement": "tissue level at time molar at 4 h", "setting": "[3]; Data 5", "result": 0.217, "unit": "nmol/g"}, {"measurement": "tissue level at time molar at 6 h", "setting": "[3]; 6 h, Data 1", "result": 0.0949, "unit": "nmol/g"}, {"measurement": "tissue level at time molar at 6 h", "setting": "[3]; 6 h, Data 2", "result": 0.0855, "unit": "nmol/g"}, {"measurement": "tissue level at time molar at 6 h", "setting": "[3]; 6 h, Data 4", "result": 0.0867, "unit": "nmol/g"}, {"measurement": "tissue level at time molar at 6 h", "setting": "[3]; 6 h, Data 5", "result": 0.129, "unit": "nmol/g"}, {"measurement": "cellular fluorescence (uptake) after blocking with unmodified RGD", "setting": "B16F10 cells [4]", "result": "negligible fluorescence"}, {"measurement": "Normalized uptake", "setting": "B16F10 cells [5]; normalized to Dox = 1, Data 1", "result": 22.44}, {"measurement": "Normalized uptake", "setting": "B16F10 cells [5]; normalized to Dox = 1, Data 2", "result": 22.03}, {"measurement": "Normalized uptake", "setting": "B16F10 cells [5]; normalized to Dox = 1, Data 3", "result": 17.85}]}
